Bridge positions count the residues as written; N and C are the ends. Square brackets hold non-standard residues; d marks the D form. Primed or numbered codes have the meaning given here. Ends that are not written are not given here. * marks the point of attachment. O‑Bzl(CF3)2 = C-terminal bis(trifluoromethyl)benzyl ester; NH(3,5-(CF3)2-benzyl) = FC(F)(F)c1cc(CN*)cc(C(F)(F)F)c1; O‑Bzl(CF3)2″ = C-terminal Bzl(CF3)2 ester; Abu = CC[C@H](N)C(=O)O; Aib = CC(C)(N)C(=O)O
B1: Tyr-DAla-Gly-Phe-γ-Abu-Trp-O-Bzl(CF3)2 (peptide)
peptide: Y[dA]GFXW-{O‑Bzl(CF3)2}
modifications: not fully specified (residue 5); printed as Tyr-DAla-Gly-Phe-γ-Abu-Trp-O-Bzl(CF3)2
notes: also called NP34
B2: Tyr[DCysGlyPheDCys]ProLeuTrpNHBn(CF3)2 (peptide)
peptide: Y[dC]GF[dC]PLW-{NH(3,5-(CF3)2-benzyl)}
modifications: disulfide 2-5
notes: cyclic; also called TY037; [D-Cys2, D-Cys5]TY027
B3: Tyr[DCysGlyPheCys]ProLeuTrpNHBn(CF3)2 (peptide)
peptide: Y[dC]GFCPLW-{NH(3,5-(CF3)2-benzyl)}
modifications: disulfide 2-5
notes: cyclic; also called TY039; [D-Cys2, Cys5]TY027

target: T1, rat NK1 receptor (rat, UniProt P14600 1-407); assay: competition vs [3H]Substance P, rNK1 CHO cell membranes
T1 construct: whole, on cells; membrane preparations of the transfected cells were used; also called rNK1; rNK-1
T1 sequence (P14600 whole entry): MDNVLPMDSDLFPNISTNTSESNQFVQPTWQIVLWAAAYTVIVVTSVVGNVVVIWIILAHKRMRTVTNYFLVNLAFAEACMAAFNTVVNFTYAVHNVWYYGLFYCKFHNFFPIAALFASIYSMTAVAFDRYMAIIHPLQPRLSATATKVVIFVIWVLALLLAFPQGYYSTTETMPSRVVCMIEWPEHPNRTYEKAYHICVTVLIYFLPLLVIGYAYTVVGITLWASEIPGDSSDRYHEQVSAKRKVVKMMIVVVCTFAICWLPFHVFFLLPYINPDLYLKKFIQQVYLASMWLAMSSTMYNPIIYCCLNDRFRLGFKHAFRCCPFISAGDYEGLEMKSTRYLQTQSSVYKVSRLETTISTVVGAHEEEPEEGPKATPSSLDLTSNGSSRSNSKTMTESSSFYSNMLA

Binder	Ki [nM]
Y[dA]GF[Abu]W-{O‑Bzl(CF3)2} (also called NP33) [Tyr-DAla-Gly-Phe-α-Abu-Trp-O-Bzl(CF3)2]	1.2
B1	7.4
Y[dA]GF[Aib]W-{O‑Bzl(CF3)2″} (also called NP41) [Tyr-DAla-Gly-Phe-Aib-Trp-O-Bzl(CF3)2]	3.4
Y[dA]GFAW-{O‑Bzl(CF3)2} (also called NP31) [Tyr-DAla-Gly-Phe-Ala-Trp-O-Bzl(CF3)2]	8.6
Y[dA]GFLW-{O‑Bzl(CF3)2} (also called NP37) [Tyr-DAla-Gly-Phe-Leu-Trp-O-Bzl(CF3)2]	0.29
Y[dA]GFMW-{O‑Bzl(CF3)2} (also called NP38) [Tyr-DAla-Gly-Phe-Met-Trp-O-Bzl(CF3)2]	0.089
Y[dA]GF[dA]W-{O‑Bzl(CF3)2} (also called NP40) [Tyr-DAla-Gly-Phe-D-Ala-Trp-O-Bzl(CF3)2]	2.4
Y[dA]GFPW-{O‑Bzl(CF3)2} (also called NP39) [Tyr-DAla-Gly-Phe-Pro-Trp-O-Bzl(CF3)2]	1.6

target: T2, rat NK1 receptor (rat, UniProt P14600 1-407); assay: competition vs [3H]substance P, membranes of rNK1-transfected CHO cells
T2 construct: whole, on cells; Assayed as membrane preparations of transfected CHO cells; also called rNK1; rNK-1
T2 sequence (P14600 whole entry): as above

Binder	Ki [nM]	LogIC50
H-Y[dA]GFMPLW-{NH(3,5-(CF3)2-benzyl)} (also: TFA salt, TFA salt; also called TY027; TY27) [H-Tyr-D-Ala-Gly-Phe-Met-Pro-Leu-Trp-NH-3,5-Bzl(CF3)2]	7.3	-7.6

target: T3, rat µ opioid receptor (rat, UniProt P33535 1-398); assay: cell-based or functional assay
T3 sequence (P33535 whole entry): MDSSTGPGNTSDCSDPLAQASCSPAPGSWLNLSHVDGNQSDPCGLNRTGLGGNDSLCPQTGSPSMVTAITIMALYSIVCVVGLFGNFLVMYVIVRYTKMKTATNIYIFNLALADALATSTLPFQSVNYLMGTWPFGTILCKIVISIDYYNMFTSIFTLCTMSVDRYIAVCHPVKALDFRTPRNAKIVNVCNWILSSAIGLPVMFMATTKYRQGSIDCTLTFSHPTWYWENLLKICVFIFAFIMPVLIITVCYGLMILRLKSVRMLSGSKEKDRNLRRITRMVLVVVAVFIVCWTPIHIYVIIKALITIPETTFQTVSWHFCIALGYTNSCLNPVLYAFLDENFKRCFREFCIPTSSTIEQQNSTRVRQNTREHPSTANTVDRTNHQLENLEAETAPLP

Binder	GTP EMax
Y[dA]GF[Abu]W-{O‑Bzl(CF3)2} (also called NP33) [Tyr-DAla-Gly-Phe-α-Abu-Trp-O-Bzl(CF3)2]	32
B1	27
Y[dA]GF[Aib]W-{O‑Bzl(CF3)2″} (also called NP41) [Tyr-DAla-Gly-Phe-Aib-Trp-O-Bzl(CF3)2]	36
Y[dA]GFAW-{O‑Bzl(CF3)2} (also called NP31) [Tyr-DAla-Gly-Phe-Ala-Trp-O-Bzl(CF3)2]	50
Y[dA]GFLW-{O‑Bzl(CF3)2} (also called NP37) [Tyr-DAla-Gly-Phe-Leu-Trp-O-Bzl(CF3)2]	54
Y[dA]GFMW-{O‑Bzl(CF3)2} (also called NP38) [Tyr-DAla-Gly-Phe-Met-Trp-O-Bzl(CF3)2]	51
Y[dA]GF[dA]W-{O‑Bzl(CF3)2} (also called NP40) [Tyr-DAla-Gly-Phe-D-Ala-Trp-O-Bzl(CF3)2]	19
Y[dA]GFPW-{O‑Bzl(CF3)2} (also called NP39) [Tyr-DAla-Gly-Phe-Pro-Trp-O-Bzl(CF3)2]	47

target: T4, human δ opioid receptor (human, UniProt P41143 1-372); assay: cell-based or functional assay
T4 sequence (P41143 whole entry, stated change not applied): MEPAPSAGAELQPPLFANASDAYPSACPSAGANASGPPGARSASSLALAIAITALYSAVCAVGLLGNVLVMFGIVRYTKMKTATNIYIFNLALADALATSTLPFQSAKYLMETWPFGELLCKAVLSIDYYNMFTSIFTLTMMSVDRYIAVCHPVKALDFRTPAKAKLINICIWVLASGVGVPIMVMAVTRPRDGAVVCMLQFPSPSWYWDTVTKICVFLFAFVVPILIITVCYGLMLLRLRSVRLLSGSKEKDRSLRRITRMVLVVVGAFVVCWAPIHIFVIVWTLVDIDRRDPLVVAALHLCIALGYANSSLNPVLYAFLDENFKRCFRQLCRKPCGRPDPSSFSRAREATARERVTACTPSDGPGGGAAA

Binder	GTP EMax
Y[dA]GF[Abu]W-{O‑Bzl(CF3)2} (also called NP33) [Tyr-DAla-Gly-Phe-α-Abu-Trp-O-Bzl(CF3)2]	43
B1	40
Y[dA]GF[Aib]W-{O‑Bzl(CF3)2″} (also called NP41) [Tyr-DAla-Gly-Phe-Aib-Trp-O-Bzl(CF3)2]	65
Y[dA]GFAW-{O‑Bzl(CF3)2} (also called NP31) [Tyr-DAla-Gly-Phe-Ala-Trp-O-Bzl(CF3)2]	91
Y[dA]GFLW-{O‑Bzl(CF3)2} (also called NP37) [Tyr-DAla-Gly-Phe-Leu-Trp-O-Bzl(CF3)2]	60
Y[dA]GFMW-{O‑Bzl(CF3)2} (also called NP38) [Tyr-DAla-Gly-Phe-Met-Trp-O-Bzl(CF3)2]	36
Y[dA]GF[dA]W-{O‑Bzl(CF3)2} (also called NP40) [Tyr-DAla-Gly-Phe-D-Ala-Trp-O-Bzl(CF3)2]	89
Y[dA]GFPW-{O‑Bzl(CF3)2} (also called NP39) [Tyr-DAla-Gly-Phe-Pro-Trp-O-Bzl(CF3)2]	56

target: T3, rat µ opioid receptor; assay: competition vs [3H]DAMGO, rMOR cell membranes

Binder	Ki [nM]	LogIC50
B2	52	-6.9
B3	200	-6.4

target: T5, µ opioid receptor of the guinea pig isolated ileum (guinea pig, UniProt P97266 1-98); assay: cell-based or functional assay
T5 sequence (P97266 whole entry): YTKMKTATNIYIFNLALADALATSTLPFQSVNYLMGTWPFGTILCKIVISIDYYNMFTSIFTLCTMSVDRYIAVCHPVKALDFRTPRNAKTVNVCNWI

Binder	GPI/LMMP IC50 [nM]
Y[dA]GFMPLW-{NH(3,5-(CF3)2-benzyl)} (also called TY027) [TyrDAlaGlyPheMetProLeuTrpNHBn(CF3)2]	488

target: T4, human δ opioid receptor; assay: competition vs [3H]DPDPE, hDOR cell membranes

Binder	Ki [nM]
Y[dA]GF[Abu]W-{O‑Bzl(CF3)2} (also called NP33) [Tyr-DAla-Gly-Phe-α-Abu-Trp-O-Bzl(CF3)2]	1.6
B1	25.4
Y[dA]GF[Aib]W-{O‑Bzl(CF3)2″} (also called NP41) [Tyr-DAla-Gly-Phe-Aib-Trp-O-Bzl(CF3)2]	24.2
Y[dA]GFAW-{O‑Bzl(CF3)2} (also called NP31) [Tyr-DAla-Gly-Phe-Ala-Trp-O-Bzl(CF3)2]	1.2
Y[dA]GFLW-{O‑Bzl(CF3)2} (also called NP37) [Tyr-DAla-Gly-Phe-Leu-Trp-O-Bzl(CF3)2]	2.9
Y[dA]GFMW-{O‑Bzl(CF3)2} (also called NP38) [Tyr-DAla-Gly-Phe-Met-Trp-O-Bzl(CF3)2]	0.6
Y[dA]GF[dA]W-{O‑Bzl(CF3)2} (also called NP40) [Tyr-DAla-Gly-Phe-D-Ala-Trp-O-Bzl(CF3)2]	3.9

target: T4, human δ opioid receptor; assay: competition vs [3H]DPDPE, hDOR cell membranes; remark: another data set of the same source

Binder	Ki [nM]	LogIC50
B2	7.8	-7.8
Y[dA]GFMPLW-{NH(3,5-(CF3)2-benzyl)} (also called TY027) [TyrDAlaGlyPheMetProLeuTrpNHBn(CF3)2]		-8.8
B3	11	-7.6

target: T1, rat NK1 receptor; assay: competition vs [3H]Substance P, rNK1 CHO cell membranes; remark: another data set of the same source

Binder	Ki [nM]
Y[dA]GFMPLW-{NH(3,5-(CF3)2-benzyl)} (also called TY027) [TyrDAlaGlyPheMetProLeuTrpNHBn(CF3)2]	7.27

target: T5, µ opioid receptor of the guinea pig …; assay: cell-based or functional assay; remark: another data set of the same source

Binder	GPI (µ) IC50 [nM]
B2	280
Y[dA]GFMPLW-{NH(3,5-(CF3)2-benzyl)} (also called TY027) [TyrDAlaGlyPheMetProLeuTrpNHBn(CF3)2]	490

target: guinea pig NK1 receptor (guinea pig, UniProt P30547 1-407); assay: cell-based or functional assay
Sequence (P30547 whole entry): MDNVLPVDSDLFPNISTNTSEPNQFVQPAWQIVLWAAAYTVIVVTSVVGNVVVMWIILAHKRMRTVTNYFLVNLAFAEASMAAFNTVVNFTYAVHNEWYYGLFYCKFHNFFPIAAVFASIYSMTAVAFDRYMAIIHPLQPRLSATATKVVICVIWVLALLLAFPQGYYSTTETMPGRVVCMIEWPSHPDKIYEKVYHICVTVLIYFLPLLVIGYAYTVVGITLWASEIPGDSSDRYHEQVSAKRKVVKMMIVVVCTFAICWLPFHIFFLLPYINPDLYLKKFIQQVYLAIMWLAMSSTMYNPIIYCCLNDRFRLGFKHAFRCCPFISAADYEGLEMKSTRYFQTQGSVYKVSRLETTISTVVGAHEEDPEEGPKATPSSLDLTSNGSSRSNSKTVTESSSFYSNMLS

Binder	GPI Substance P antagonist Ke [nM]
B2	4.7

target: T3, rat µ opioid receptor; assay: cell-based or functional assay; remark: another data set of the same source

Binder	[35S]GTPγS binding EC50 [nM]	[35S]GTPγS binding Emax [%]	[35S]GTPγS binding LogEC50
B2	53	12	-7.3
B3	118	17	-6.9

target: T4, human δ opioid receptor; assay: cell-based or functional assay; remark: another data set of the same source

Binder	[35S]GTPγS binding EC50 [nM]	[35S]GTPγS binding Emax [%]	[35S]GTPγS binding LogEC50
B2	14	22	-7.9
Y[dA]GFMPLW-{NH(3,5-(CF3)2-benzyl)} (also called TY027) [TyrDAlaGlyPheMetProLeuTrpNHBn(CF3)2]	8.6	58	-8.1
B3	0.9	37	-9

target: T5, µ opioid receptor of the guinea pig …; assay: cell-based or functional assay; remark: another data set of the same source

Binder	GPI (µ) IC50 [nM]
Y[dA]GFMPLW-{NH(3,5-(CF3)2-benzyl)} (also called TY027) [TyrDAlaGlyPheMetProLeuTrpNHBn(CF3)2]	490

target: T6, human NK1 receptor (human, UniProt P25103 1-407); assay: competition vs [3H]Substance P, hNK1 CHO cell membranes
T6 construct: whole, on cells; membrane preparations of the transfected cells were used; also called hNK1; human neurokinin-1 receptor
T6 sequence (P25103 whole entry): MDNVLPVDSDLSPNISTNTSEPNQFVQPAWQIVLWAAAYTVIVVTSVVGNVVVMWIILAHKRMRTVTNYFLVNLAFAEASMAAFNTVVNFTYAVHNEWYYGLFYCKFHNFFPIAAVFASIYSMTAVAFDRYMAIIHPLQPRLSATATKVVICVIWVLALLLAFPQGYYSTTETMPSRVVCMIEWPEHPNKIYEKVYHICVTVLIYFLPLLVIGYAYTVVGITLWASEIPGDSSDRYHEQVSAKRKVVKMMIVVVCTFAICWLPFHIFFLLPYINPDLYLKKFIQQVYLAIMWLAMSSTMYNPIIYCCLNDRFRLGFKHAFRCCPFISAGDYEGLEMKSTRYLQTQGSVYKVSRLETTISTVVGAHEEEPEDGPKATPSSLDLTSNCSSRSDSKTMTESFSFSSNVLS

Binder	Ki [nM]
Y[dA]GF[Abu]W-{O‑Bzl(CF3)2} (also called NP33) [Tyr-DAla-Gly-Phe-α-Abu-Trp-O-Bzl(CF3)2]	0.12
B1	0.001
Y[dA]GF[Aib]W-{O‑Bzl(CF3)2″} (also called NP41) [Tyr-DAla-Gly-Phe-Aib-Trp-O-Bzl(CF3)2]	0.008
Y[dA]GFLW-{O‑Bzl(CF3)2} (also called NP37) [Tyr-DAla-Gly-Phe-Leu-Trp-O-Bzl(CF3)2]	0.09
Y[dA]GFMW-{O‑Bzl(CF3)2} (also called NP38) [Tyr-DAla-Gly-Phe-Met-Trp-O-Bzl(CF3)2]	0.009
Y[dA]GF[dA]W-{O‑Bzl(CF3)2} (also called NP40) [Tyr-DAla-Gly-Phe-D-Ala-Trp-O-Bzl(CF3)2]	0.011
Y[dA]GFPW-{O‑Bzl(CF3)2} (also called NP39) [Tyr-DAla-Gly-Phe-Pro-Trp-O-Bzl(CF3)2]	0.1

target: T3, rat µ opioid receptor; assay: competition vs [3H]DAMGO, rMOR cell membranes; remark: another data set of the same source

Binder	Ki [nM]
Y[dA]GF[Abu]W-{O‑Bzl(CF3)2} (also called NP33) [Tyr-DAla-Gly-Phe-α-Abu-Trp-O-Bzl(CF3)2]	11.4
B1	2.2
Y[dA]GF[Aib]W-{O‑Bzl(CF3)2″} (also called NP41) [Tyr-DAla-Gly-Phe-Aib-Trp-O-Bzl(CF3)2]	13.3
Y[dA]GFAW-{O‑Bzl(CF3)2} (also called NP31) [Tyr-DAla-Gly-Phe-Ala-Trp-O-Bzl(CF3)2]	3.6
Y[dA]GFLW-{O‑Bzl(CF3)2} (also called NP37) [Tyr-DAla-Gly-Phe-Leu-Trp-O-Bzl(CF3)2]	23.3
Y[dA]GFMW-{O‑Bzl(CF3)2} (also called NP38) [Tyr-DAla-Gly-Phe-Met-Trp-O-Bzl(CF3)2]	3.3
Y[dA]GF[dA]W-{O‑Bzl(CF3)2} (also called NP40) [Tyr-DAla-Gly-Phe-D-Ala-Trp-O-Bzl(CF3)2]	2.8
Y[dA]GFPW-{O‑Bzl(CF3)2} (also called NP39) [Tyr-DAla-Gly-Phe-Pro-Trp-O-Bzl(CF3)2]	14.8

target: T7, human δ opioid receptor (human, UniProt P41143 1-372); assay: competition vs [3H]DPDPE, membranes of hDOR-transfected HN9.10 cells
T7 construct: whole, on cells; Assayed as membrane preparations of transfected cells; also called hDOR; DOR
T7 sequence (P41143 whole entry, stated change not applied): as the sequence (P41143 whole entry, stated change not applied) above

Binder	LogIC50
H-Y[dA]GFMPLW-{NH(3,5-(CF3)2-benzyl)} (also: TFA salt, TFA salt; also called TY027; TY27) [H-Tyr-D-Ala-Gly-Phe-Met-Pro-Leu-Trp-NH-3,5-Bzl(CF3)2]	-8.8

target: T7, human δ opioid receptor; assay: cell-based or functional assay

Binder	[35S]GTPγS binding EC50 [nM]	[35S]GTPγS binding Emax [%]	[35S]GTPγS binding LogEC50
H-Y[dA]GFMPLW-{NH(3,5-(CF3)2-benzyl)} (also: TFA salt, TFA salt; also called TY027; TY27) [H-Tyr-D-Ala-Gly-Phe-Met-Pro-Leu-Trp-NH-3,5-Bzl(CF3)2]	8.6	58	-8.1

target: T1, rat NK1 receptor; assay: competition vs [3H]Substance P, rNK1 CHO cell membranes; remark: another data set of the same source

Binder	LogIC50	Ki [nM]
B2	-6.9	
Y[dA]GFMPLW-{NH(3,5-(CF3)2-benzyl)} (also called TY027) [TyrDAlaGlyPheMetProLeuTrpNHBn(CF3)2]	-7.6	7.3
B3	-5.8	

From patent publication US8026218 (UNIVERSITY OF ARIZONA, dated 2011)
